Reference: publication PMC5789952 (Proceedings of the National Academy of Sciences of the …, 2017)
One block for each binder: values may come before it.

Assays:
STAT2_(133–679) = biological target: T1, STAT2_(133–679) (mouse, UniProt Q9WVL2 133-679); assay: SEC-MALS
T1 sequence (looked up): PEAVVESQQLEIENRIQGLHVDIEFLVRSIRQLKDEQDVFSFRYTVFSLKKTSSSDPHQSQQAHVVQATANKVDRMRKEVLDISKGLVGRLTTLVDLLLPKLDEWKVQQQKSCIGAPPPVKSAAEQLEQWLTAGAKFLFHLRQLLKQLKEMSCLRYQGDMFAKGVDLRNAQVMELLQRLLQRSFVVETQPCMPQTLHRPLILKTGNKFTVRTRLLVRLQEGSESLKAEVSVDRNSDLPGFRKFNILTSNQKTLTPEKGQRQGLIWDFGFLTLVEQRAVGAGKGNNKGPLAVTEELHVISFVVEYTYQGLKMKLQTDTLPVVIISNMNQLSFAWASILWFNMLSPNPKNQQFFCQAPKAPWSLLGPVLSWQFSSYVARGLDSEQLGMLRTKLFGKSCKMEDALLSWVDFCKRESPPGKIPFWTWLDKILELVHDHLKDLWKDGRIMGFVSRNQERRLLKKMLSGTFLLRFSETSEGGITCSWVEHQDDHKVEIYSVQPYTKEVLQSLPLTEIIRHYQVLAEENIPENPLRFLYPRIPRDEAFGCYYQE

IRF9–IAD_(182–385) = biological target: T2, IRF9–IAD_(182–385) (mouse, UniProt Q61179 182-385); assay: SEC
T2 sequence (looked up): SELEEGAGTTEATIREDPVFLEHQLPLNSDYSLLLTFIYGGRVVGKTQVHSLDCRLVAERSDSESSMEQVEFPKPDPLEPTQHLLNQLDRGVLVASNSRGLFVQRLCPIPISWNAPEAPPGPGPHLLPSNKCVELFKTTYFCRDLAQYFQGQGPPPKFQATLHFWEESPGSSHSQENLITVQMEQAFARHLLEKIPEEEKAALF

[1] = biological target: T3, STAT2 (133–748) of the purified STAT1–STAT2 heterodimer (mouse, UniProt Q9WVL2 133-748); assay: tandem affinity co-purification
T3 sequence (looked up): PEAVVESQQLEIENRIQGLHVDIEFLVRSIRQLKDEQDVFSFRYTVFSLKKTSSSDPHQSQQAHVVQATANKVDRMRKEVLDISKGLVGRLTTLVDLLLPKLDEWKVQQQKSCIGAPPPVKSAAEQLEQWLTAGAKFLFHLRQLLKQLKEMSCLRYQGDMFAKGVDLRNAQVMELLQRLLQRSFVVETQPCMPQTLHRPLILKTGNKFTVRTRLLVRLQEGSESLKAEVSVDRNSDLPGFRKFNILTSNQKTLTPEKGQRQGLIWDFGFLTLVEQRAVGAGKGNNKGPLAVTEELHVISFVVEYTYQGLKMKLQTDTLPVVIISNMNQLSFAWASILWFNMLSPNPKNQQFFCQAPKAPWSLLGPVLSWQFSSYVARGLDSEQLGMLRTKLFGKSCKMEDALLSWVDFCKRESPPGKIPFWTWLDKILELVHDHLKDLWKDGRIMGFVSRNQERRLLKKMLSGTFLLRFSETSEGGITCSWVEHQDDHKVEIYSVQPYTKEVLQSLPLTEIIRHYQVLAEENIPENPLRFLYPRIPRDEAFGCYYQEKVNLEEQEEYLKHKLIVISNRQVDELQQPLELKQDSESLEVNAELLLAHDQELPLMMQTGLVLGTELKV

IRF9-DBD = biological target: T4, IRF9-DBD (Mus musculus, UniProt Q61179 1-116); assay: EMSA
T4 sequence: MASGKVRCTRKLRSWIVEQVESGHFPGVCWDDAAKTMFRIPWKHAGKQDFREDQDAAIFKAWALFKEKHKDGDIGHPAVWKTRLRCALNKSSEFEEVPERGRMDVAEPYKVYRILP

stoichiometry N (STAT2_(133–679)): 1
B1: IRF9_(182–399) (domain or fragment, mouse, UniProt Q61179 182-399, looked up)
chain: SELEEGAGTTEATIREDPVFLEHQLPLNSDYSLLLTFIYGGRVVGKTQVHSLDCRLVAERSDSESSMEQVEFPKPDPLEPTQHLLNQLDRGVLVASNSRGLFVQRLCPIPISWNAPEAPPGPGPHLLPSNKCVELFKTTYFCRDLAQYFQGQGPPPKFQATLHFWEESPGSSHSQENLITVQMEQAFARHLLEKIPEEEKAALFLLQHTEQSPSALGH

binding result [1]: binds
B3: STAT1 (136–713) of the purified STAT1–STAT2 heterodimer (domain or fragment, mouse, UniProt P42225 136-713, looked up)
chain: LDKQKELDSKVRNVKDQVMCIEQEIKTLEELQDEYDFKCKTSQNREGEANGVAKSDQKQEQLLLHKMFLMLDNKRKEIIHKIRELLNSIELTQNTLINDELVEWKRRQQSACIGGPPNACLDQLQTWFTIVAETLQQIRQQLKKLEELEQKFTYEPDPITKNKQVLSDRTFLLFQQLIQSSFVVERQPCMPTHPQRPLVLKTGVQFTVKSRLLVKLQESNLLTKVKCHFDKDVNEKNTVKGFRKFNILGTHTKVMNMEESTNGSLAAELRHLQLKEQKNAGNRTNEGPLIVTEELHSLSFETQLCQPGLVIDLETTSLPVVVISNVSQLPSGWASILWYNMLVTEPRNLSFFLNPPCAWWSQLSEVLSWQFSSVTKRGLNADQLSMLGEKLLGPNAGPDGLIPWTRFCKENINDKNFSFWPWIDTILELIKNDLLCLWNDGCIMGFISKERERALLKDQQPGTFLLRFSESSREGAITFTWVERSQNGGEPDFHAVEPYTKKELSAVTFPDIIRNYKVMAAENIPENPLKYLYPNIDKDHAFGKYYSRPKEAPEPMELDDPKRTGYIKTELISVSEVH

Second part, the binder before the results:

B2: STAT2_(133–315) (domain or fragment, mouse, UniProt Q9WVL2 133-315, looked up)
chain: PEAVVESQQLEIENRIQGLHVDIEFLVRSIRQLKDEQDVFSFRYTVFSLKKTSSSDPHQSQQAHVVQATANKVDRMRKEVLDISKGLVGRLTTLVDLLLPKLDEWKVQQQKSCIGAPPPVKSAAEQLEQWLTAGAKFLFHLRQLLKQLKEMSCLRYQGDMFAKGVDLRNAQVMELLQRLLQRS
binding result (IRF9–IAD_(182–385)): binds

B4: ADAR ISRE 29 bp (dsDNA)
DNA 1: TAAGCCTTTTCAAGGAAACGAAAGTGAAC
DNA 2: AGTTCACTTTCGTTTCCTTGAAAAGGCTT
binding result (IRF9-DBD): binds
